Results published in the supplement of paper PMC9112550, “Optimization of the antimicrobial peptide Bac7 by deep mutational scanning” (BMC Biology, 2022).

What follows are sequences tested on Escherichia coli TOP10 (assay: shrunken log2 fold change of peptide-encoding DNA abundance (4.5 h post-induction vs induction); higher = less antimicrobial activity (less host growth inhibition)). Conditions: time post-induction: 4.5 h; library: site-saturation at positions 5, 18, 19, 20.
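Further: peptides expressed intracellularly from a pBAD plasmid library in pooled LB shake-flask culture, induced with 0.3% L-arabinose, DNA abundance read by NGS, three biological replicates, DESeq2 with apeglm shrinkage.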

Row | Sequence | shrunken log2 fold change
1 | RRIRRRPPRLPRPRPRPNNCPRP | 0.129
2 | RRIRKRPPRLPRPRPRPTLIPRP | -0.0752
3 | RRIRCRPPRLPRPRPRPNRRPRP | -0.0599
4 | RRIRWRPPRLPRPRPRPATKPRP | 0.273
5 | RRIRIRPPRLPRPRPRPDENPRP | 0.108
6 | RRIRVRPPRLPRPRPRPVSPPRP | -0.146
7 | RRIRYRPPRLPRPRPRPNAFPRP | -0.158
8 | RRIRARPPRLPRPRPRPQFFPRP | 0.0526
9 | RRIRKRPPRLPRPRPRPTDMPRP | -0.124
10 | RRIRLRPPRLPRPRPRPKELPRP | 0.0165
11 | RRIRNRPPRLPRPRPRPYWDPRP | -0.54
12 | RRIRQRPPRLPRPRPRPMLKPRP | -0.106
13 | RRIRIRPPRLPRPRPRPQWGPRP | -0.000367
14 | RRIRCRPPRLPRPRPRPDHCPRP | 0.00334
15 | RRIRIRPPRLPRPRPRPPKPPRP | 0.0539
16 | RRIRHRPPRLPRPRPRPMQEPRP | -0.01
17 | RRIRIRPPRLPRPRPRPAMCPRP | -0.182
18 | RRIRIRPPRLPRPRPRPHKFPRP | -0.291
19 | RRIRGRPPRLPRPRPRPCWHPRP | 0.357
20 | RRIRWRPPRLPRPRPRPQDHPRP | 0.178
21 | RRIRARPPRLPRPRPRPYFGPRP | -0.327
22 | RRIRSRPPRLPRPRPRPVDPPRP | 0.00726
23 | RRIRDRPPRLPRPRPRPIPVPRP | -0.00774
24 | RRIRNRPPRLPRPRPRPEDPPRP | 0.00956
25 | RRIRRRPPRLPRPRPRPVATPRP | 1.15

Row | Sequence | shrunken log2 fold change
26 | RRIRIRPPRLPRPRPRPVCLPRP | -0.369
27 | RRIRGRPPRLPRPRPRPVFHPRP | 0.0913
28 | RRIRARPPRLPRPRPRPCSCPRP | 0.0516
29 | RRIRCRPPRLPRPRPRPYNIPRP | -1.27
30 | RRIRPRPPRLPRPRPRPLLSPRP | 0.0345
31 | RRIRCRPPRLPRPRPRPIAVPRP | -0.0152
32 | RRIRARPPRLPRPRPRPQGGPRP | 0.499
33 | RRIRFRPPRLPRPRPRPYALPRP | -0.0591
34 | RRIRERPPRLPRPRPRPWSYPRP | 0.0168
35 | RRIRGRPPRLPRPRPRPSAVPRP | 1.39
36 | RRIRGRPPRLPRPRPRPVATPRP | 2.32
37 | RRIRARPPRLPRPRPRPWNRPRP | -0.0462
38 | RRIRPRPPRLPRPRPRPQCTPRP | -0.0867
39 | RRIRDRPPRLPRPRPRPKKQPRP | 0.187
40 | RRIRIRPPRLPRPRPRPYMLPRP | -0.916
41 | RRIRARPPRLPRPRPRPRDHPRP | 0.158
42 | RRIRFRPPRLPRPRPRPEYQPRP | -0.0212
43 | RRIRDRPPRLPRPRPRPQYHPRP | -0.47
44 | RRIRTRPPRLPRPRPRPIPGPRP | -0.36
45 | RRIRRRPPRLPRPRPRPEQIPRP | 0.0197
46 | RRIRFRPPRLPRPRPRPHNFPRP | -0.399
47 | RRIRRRPPRLPRPRPRPQPNPRP | 0.355
48 | RRIRARPPRLPRPRPRPGCGPRP | 0.887
49 | RRIRIRPPRLPRPRPRPWPTPRP | 0.331
50 | RRIRTRPPRLPRPRPRPTHQPRP | 0.926

Row | Sequence | shrunken log2 fold change
51 | RRIRRRPPRLPRPRPRPCKQPRP | -0.0474
52 | RRIRCRPPRLPRPRPRPDWSPRP | 0.0534
53 | RRIRGRPPRLPRPRPRPRFIPRP | 0.123
54 | RRIRIRPPRLPRPRPRPLKEPRP | -0.568
55 | RRIRIRPPRLPRPRPRPTGEPRP | 0.00229
56 | RRIRARPPRLPRPRPRPAGAPRP | 1.16
57 | RRIRGRPPRLPRPRPRPYNGPRP | -0.0131
58 | RRIRLRPPRLPRPRPRPYEMPRP | -0.468
59 | RRIRHRPPRLPRPRPRPLCDPRP | -0.397
60 | RRIRPRPPRLPRPRPRPRWDPRP | -0.0161
61 | RRIRMRPPRLPRPRPRPCGHPRP | 0.0237
62 | RRIRLRPPRLPRPRPRPLPWPRP | 0.334
63 | RRIRSRPPRLPRPRPRPPDHPRP | 0.202
64 | RRIRRRPPRLPRPRPRPMDSPRP | -0.0307
65 | RRIRGRPPRLPRPRPRPIPWPRP | 0.361
66 | RRIRERPPRLPRPRPRPVTLPRP | -0.289
67 | RRIRIRPPRLPRPRPRPCIHPRP | -0.488
68 | RRIRYRPPRLPRPRPRPPWEPRP | -0.381
69 | RRIRERPPRLPRPRPRPRLSPRP | 0.134
70 | RRIRQRPPRLPRPRPRPRDPPRP | 0.604
71 | RRIRQRPPRLPRPRPRPQIHPRP | -0.246
72 | RRIRIRPPRLPRPRPRPILMPRP | -0.23
73 | RRIRGRPPRLPRPRPRPKNFPRP | 0.0583
74 | RRIRIRPPRLPRPRPRPVFAPRP | 0.0576
75 | RRIRRRPPRLPRPRPRPEVAPRP | 0.345

Row | Sequence | shrunken log2 fold change
76 | RRIRNRPPRLPRPRPRPNDNPRP | -0.734
77 | RRIRGRPPRLPRPRPRPSPCPRP | -0.0911
78 | RRIRNRPPRLPRPRPRPYKTPRP | -0.0391
79 | RRIRHRPPRLPRPRPRPETVPRP | 0.12
80 | RRIRQRPPRLPRPRPRPRVDPRP | 0.241
81 | RRIRERPPRLPRPRPRPWIMPRP | -0.277
82 | RRIRPRPPRLPRPRPRPMMPPRP | -0.141
83 | RRIRERPPRLPRPRPRPRREPRP | 0.0467
84 | RRIRRRPPRLPRPRPRPYDLPRP | -0.546
85 | RRIRKRPPRLPRPRPRPDRKPRP | 0.413
86 | RRIRTRPPRLPRPRPRPGAPPRP | 0.479
87 | RRIRLRPPRLPRPRPRPPRVPRP | 0.536
88 | RRIRMRPPRLPRPRPRPSPKPRP | 0.593
89 | RRIRRRPPRLPRPRPRPETVPRP | -0.11
90 | RRIRLRPPRLPRPRPRPTMWPRP | 0.145
91 | RRIRYRPPRLPRPRPRPPHPPRP | -0.187
92 | RRIRDRPPRLPRPRPRPALYPRP | 0.468
93 | RRIRGRPPRLPRPRPRPWYKPRP | -0.015
94 | RRIRKRPPRLPRPRPRPMLFPRP | 0.315
95 | RRIRKRPPRLPRPRPRPGILPRP | 0.28
96 | RRIRCRPPRLPRPRPRPTHNPRP | 0.124
97 | RRIRWRPPRLPRPRPRPSFYPRP | -0.328
98 | RRIRPRPPRLPRPRPRPRDIPRP | -0.191
99 | RRIRTRPPRLPRPRPRPNSSPRP | -0.13
100 | RRIRRRPPRLPRPRPRPHQCPRP | -0.0941

Row | Sequence | shrunken log2 fold change
101 | RRIRRRPPRLPRPRPRPSFGPRP | 0.365
102 | RRIRERPPRLPRPRPRPVTGPRP | -0.0257
103 | RRIRKRPPRLPRPRPRPDRHPRP | -0.091
104 | RRIRKRPPRLPRPRPRPYSDPRP | 0.0075
105 | RRIRCRPPRLPRPRPRPCGRPRP | -0.184
106 | RRIRGRPPRLPRPRPRPTQGPRP | 1.14
107 | RRIRSRPPRLPRPRPRPPTNPRP | 0.298
108 | RRIRLRPPRLPRPRPRPYPPPRP | -0.866
109 | RRIRSRPPRLPRPRPRPQLRPRP | 0.123
110 | RRIRMRPPRLPRPRPRPSMHPRP | 0.377
111 | RRIRYRPPRLPRPRPRPYFQPRP | -1.6
112 | RRIRDRPPRLPRPRPRPAISPRP | -0.0409
113 | RRIRSRPPRLPRPRPRPEAVPRP | -0.0338
114 | RRIRLRPPRLPRPRPRPPIWPRP | 0.0261
115 | RRIRFRPPRLPRPRPRPHGRPRP | 0.187
116 | RRIRPRPPRLPRPRPRPEGEPRP | 0.302
117 | RRIRARPPRLPRPRPRPVNRPRP | 0.277
118 | RRIRVRPPRLPRPRPRPDSHPRP | -0.111
119 | RRIRSRPPRLPRPRPRPRYTPRP | -0.145
120 | RRIRHRPPRLPRPRPRPTTCPRP | -0.278
121 | RRIRERPPRLPRPRPRPEFRPRP | -0.274
122 | RRIRYRPPRLPRPRPRPYLWPRP | -0.777
123 | RRIRVRPPRLPRPRPRPFMCPRP | -0.325
124 | RRIRWRPPRLPRPRPRPQVWPRP | 0.576
125 | RRIRCRPPRLPRPRPRPVMGPRP | 0.111

Row | Sequence | shrunken log2 fold change
126 | RRIRGRPPRLPRPRPRPLQCPRP | 0.904
127 | RRIRQRPPRLPRPRPRPAVYPRP | -0.15
128 | RRIRARPPRLPRPRPRPLHCPRP | 0.617
129 | RRIRQRPPRLPRPRPRPGSVPRP | 0.241
130 | RRIRCRPPRLPRPRPRPKGTPRP | 0.0259
131 | RRIRWRPPRLPRPRPRPCSIPRP | -0.134
132 | RRIRARPPRLPRPRPRPVQAPRP | 0.312
133 | RRIRLRPPRLPRPRPRPDQYPRP | -0.014
134 | RRIRARPPRLPRPRPRPVVGPRP | 0.5
135 | RRIRWRPPRLPRPRPRPMSLPRP | -0.0247
136 | RRIRPRPPRLPRPRPRPTAIPRP | 0.434
137 | RRIRRRPPRLPRPRPRPHLCPRP | 0.189
138 | RRIRMRPPRLPRPRPRPISYPRP | -0.0167
139 | RRIRSRPPRLPRPRPRPGYWPRP | -0.0968
140 | RRIRTRPPRLPRPRPRPTVFPRP | -0.14
141 | RRIRDRPPRLPRPRPRPKWEPRP | 0.104
142 | RRIRPRPPRLPRPRPRPNCQPRP | 0.419
143 | RRIRARPPRLPRPRPRPMCLPRP | 0.0284
144 | RRIRMRPPRLPRPRPRPVHKPRP | -0.0081
145 | RRIRRRPPRLPRPRPRPRYLPRP | -0.0373
146 | RRIRLRPPRLPRPRPRPWSLPRP | -0.195
147 | RRIRTRPPRLPRPRPRPESFPRP | -0.47
148 | RRIRKRPPRLPRPRPRPADPPRP | -0.0715
149 | RRIRFRPPRLPRPRPRPKMTPRP | -0.173
150 | RRIRGRPPRLPRPRPRPYPKPRP | 0.161
